Usually kon stands for a measure of how fast the partners come together. Read a low kon as slow association. What is called koff is the first-order rate constant of dissociation. The low end stands for slow dissociation, the high end for fast dissociation. What is called Kd is the constant that tells how readily two partners part at equilibrium. As usually defined, the Hill coefficient is a measure of the steepness of the concentration-response curve.

The values that follow come from patent US20240369485A1, “FLUORESCENT SENSOR FOR MONITORING CALCIUM DYNAMICS” (priority 2021, published 2024).

Where two headings read alike, the source gives them in different places.

In one data set the test system is HeLa cells. The data set is classed as cell-based. The protocol: Cell culture and transfection. C2C12, HEK293 and HeLa cells were cultured and maintained in Dulbecco's modified Eagle's medium (DMEM) supplemented with 10% fetal bovine serum (FBS) and high glucose (4.5 g/L) at 37° C. R-CatchER, G-CatchER2, G-CEPIA1er, R-CEPIA1er or R-CatchER with GFP-CaSR (wt and mutations) were transfected into cells using Lipofectamine 3000 (Life Technologies), following the manufacturer's instructions. Seed cells onto sterilized 22 mm×40 mm glass microscope slides in 6 cm dishes until about 70% confluency, the day of transfection. The next day, 2 μg of plasmid were mixed with transfection reagent in the reduced serum media Opti-MEM for 4-6 h at 37° C. The media was then replaced with 3 mL of fresh DMEM and incubated at 37° C. for 48 h.
HILO imaging of R-CatchER, G-CatchER2, R-CEPIA1er, and G-CEPIA1er. Samples were mounted in a perfusion chamber and imaged using a customized optical microscope based on a Nikon TiE inverted microscope equipped with a 100×TIRF objective (N.A. 1.49, Nikon) and a highly sensitive electron multiplying charge-coupled device (EMCCD) camera (Andor Ixon Ultra 888). A fiber-coupled 488 nm or 561 nm laser (LBX-488/LCX-561, Oxxius) was first collimated and then focused to the back focal plane of the TIRF objective using an achromatic optical lens of 200 mm focal length (AC254-200-A, Thorlabs). To achieve HILO imaging, the incident angle of the excitation laser was adjusted to be slightly smaller than the critical angles at the cell-coverslip interface through translational movement the optical axis of the incident light beam by a motorized stage (SGSP-20-20, Sigma Koki). An efficient excitation volume of few micrometers was obtained under HILO illumination. A quad-band filter set (TRF89901v2, Chroma) was used for filtering out the fluorescence background. Fluorescence images of samples were recorded at 1 Hz as the concentration of ER Ca^2+ was perturbed by perfusion of 3 μM Thapsigargin, 0.5 mM 4-cmc, 1 mM 4-cmc, 100 μM ATP, or 100 μM histamine.

The nature of data set [1]: pKa determination of the chromophore. Format: physicochemical. The protocol:
pKa determination. To measure the chromophore pKa of mApple, EGFP, and mCherry variants, the proteins were prepared in buffers (sodium acetate buffer for pH 3-5, MES buffer for pH 5-6, HEPES buffer for pH 6.5-8, TRIS buffer for pH 8.5-9) covering a pH range from 3 to 10. All samples were Incubated at 4° C. overnight, then the following day, the absorbance and fluorescence spectra were collected using a Shimadzu UV-1601 spectrophotometer and the Spectrofluorimeter.

A short description of data set [2]: In vitro kinetics by stopped flow spectrofluorometer. The data set is classed as binding. As for the experimental part:
In vitro kinetics by stopped flow spectrofluorometer. The kinetics were determined by a Hi-Tech SF-61 stopped-flow spectrofluorometer equipped with the mercury-Xe lamp (10 mm path length, dead time of 2.2 ms) at 20° C. For R-CatchER and its variant or R-CEPIA1er, excitation was at 569 nm and a long-pass 590 nm filter was used. For G-CEPIA1er, a 530 nm long-pass filter was set with excitation at 498 nm, while for MCD1, excitation at 587 nm and a long-pass 600 nm filter were applied. For association kinetics, R-CatchER, R-CatchER variant, MCD1, R-CEPIA1er, and G-CEPIA1er were mixed with the same buffer containing an increasing concentration of Ca^2+. For disassociation kinetics, R-CatchER, R-CatchER variant, MCD1, R-CEPIA1er, and G-CEPIA1er in buffers with concentration of Ca^2+ at Kd, were mixed with 5 mM EGTA or buffer. The raw data were fitted using either single exponential for R-CatchER, R-CatchER variant, and MCD1, or double exponential equations for R-CEPIA1er and G-CEPIA1er.

A short description of data set [3]: Calcium (Ca^2+) binding assay: fluorescence/absorbance titration of purified protein. As for the experimental part:
Calcium (Ca^2+) binding assay. 10 μM protein samples of mApple, EGFP, and mCherry variants were titrated with different concentrations of Ca^2+. Data were fitted with a 1:1 binding equation. Fluorescence intensities were collected using a Spectrofluorimeter (Photon Technology International, Inc.) and the absorbance values of Ca^2+-free and Ca^2+-loaded forms were determined using a Shimadzu UV-1601 spectrophotome.
Ca^2+ binding assay. Fluorescence measurements of mApple variants with increasing Ca^2+ concentrations were done in order to obtain the affinity of the sensor for Ca^2+ in vitro. Samples of 10 μM mApple variants with 5 μM EGTA were prepared in triplicate in 1 mL volumes in 10 mM Tris, pH 7.4. The samples were placed in quartz fluorescence cuvettes, and metal ion was titrated into each sample, in a stepwise manner, using 0.1 M and 1 M metal stock solutions. The fluorescence response of the indicator to increasing Ca^2+ concentrations was monitored using a fluorescence spectrophotometer (Photon Technology International, Canada) with the Felix32 fluorescence analysis software. The absorbance spectra before and after titration were obtained using a Shimadzu UV-1601 spectrophotometer.

B1: R-CatchER: red genetically encoded Ca^2+ indicator, mApple A145E/K198D/R216D, SEQ ID NO: 12 (protein)
chain: EENNMAIIKEFMRFKVHMEGSVNGHEFEIEGEGEGRPYEAFQTAKLKVTKGGPLPFAWDILSPQFMYGSKVYIKHPADIPDYFKLSFPEGFRWERVMNFEDGGIIHVNQDSSLQDGVFIYKVKLRGTNFPSDGPVMQKKTMGWEESEERMYPEDGALKSEIKKRLKLKDGGHYAAEVKTTYKAKKPVQLPGAYIVDIDLDIVSHNEDYTIVEQYEDAEGRHSTGGMDELYK
As for B1, the “fluorescence decrease ΔF/F” value in the data set on HeLa cells (3 μM Thapsigargin (Tg), 0 mM Ca^2+) stood at 0.69±0.07. For the same molecule, the “half decay time of the first peak of ER Ca^2+ oscillations” value with HeLa cells (100 μM histamine) was found to be 1.8 ± 0.1 s. Moreover, the “half rise time of the first peak of ER Ca^2+ oscillations” value in the data set with HeLa cells (100 μM histamine) was 7.3 ± 0.1 s. The “apparent pKa” value is listed as 8.58±0.11 in data set [1] (0 mM Ca^2+) and 7.11±0.10 in data set [1] (10 mM Ca^2+). Besides, the pka in data set [1] (Apo) was determined as 8.58 ± 0.11; in data set [1] (Holo) it was 7.11 ± 0.10. Also, the “pKa (holo)” value in data set [1] (Holo) was 7.1. Besides, the “pKa (apo)” value in data set [1] (apo) was found to be 8.6. Besides, in data set [2] (Ca^2+ association), the “kon” value was above 7e+06 M⁻¹ s⁻¹. Moreover, the off-rate (koff) in data set [2] (Ca^2+ dissociation) is above 2000 s⁻¹. Further, the “Ca^2+ association rate kon” value in data set [2] (stopped-flow, dead time 2.2 ms, 20° C.) is at least 7e+06 M⁻¹ s⁻¹. In addition, the “Ca^2+ induced fluorescence changes upon addition of other ions (metal selectivity)” value in data set [3] (1 mM Mg^2+, 150 mM KCl, 150 mM NaCl) was “insensitive”. In addition, the Fmax/Fmin in data set [3] (EGFP and mApple variants) is on record as 4.22. In addition, the Aholo/Aapo in data set [3] (absorbance at 569) is reported as 4.33 (569). For the same molecule, the “fluorescence dynamic range ΔF/F” value in data set [3] (in vitro, Ca^2+ binding) amounted to 4.22±0.04. Besides, the Kd in data set [3] (in vitro, purified protein, read-out: Kd for Ca^2+ binding) came out at 350 ± 30 µM; in data set [3] (purified indicator, Ca^2+, read-out: Kd), 361 µM. Also, in data set [3] (purified indicator, Ca^2+ binding), the Hill coefficient is reported as 0.98. The “Dynamic Range” value in data set [3] (purified indicator, Ca^2+ induced fluorescence) is reported as 4.2.
